From US20120178908A1 (Novo Nordisk, published 2012)

Assays:
[1] = target: T1, TLT-1 18-188 relipidated in 20:80 PS:PC vesicles (human) (UniProt Q86YW5)
T1 sequence: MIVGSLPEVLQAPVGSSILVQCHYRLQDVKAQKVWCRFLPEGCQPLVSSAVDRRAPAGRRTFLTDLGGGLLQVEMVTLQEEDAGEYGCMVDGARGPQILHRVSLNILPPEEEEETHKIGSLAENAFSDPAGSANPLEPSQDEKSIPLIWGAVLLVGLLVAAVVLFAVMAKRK

[2] = target: T2, TLT-1 receptor on the surface of activated human platelets (human) (UniProt Q86YW5)
T2 sequence: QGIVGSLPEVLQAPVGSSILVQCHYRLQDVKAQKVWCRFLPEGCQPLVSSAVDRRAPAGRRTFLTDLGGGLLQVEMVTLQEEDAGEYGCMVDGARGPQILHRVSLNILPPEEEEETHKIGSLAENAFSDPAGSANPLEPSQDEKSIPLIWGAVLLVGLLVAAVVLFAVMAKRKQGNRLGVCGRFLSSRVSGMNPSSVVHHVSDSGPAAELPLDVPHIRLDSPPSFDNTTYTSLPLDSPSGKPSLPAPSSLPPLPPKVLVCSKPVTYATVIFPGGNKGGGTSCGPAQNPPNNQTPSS

B1: Fab 0012-VH-CH1-L0-TF;LC-HPC4 (protein)
VH-CH1-TF, no linker: EVKLLESGGGLVQPGGSLKLSCAASGFDFSRYWMTWVRQAPGKGLEWIGEINPDSSTINYTPSLKDKFIISRDNAKNTLYLQMSEVRSEDTALYYCASGVFTSWGQGTLVTVSAASTKGPSVFPLAPCSRSTSESTAALGCLVKDYFPEPVTVSWNSGALTSGVHTFPAVLQSSGLYSLSSVVTVPSSSLGTKTYTCNVDHKPSNTKVDKRVESKSGTTNTVAAYNLTWKSTNFKTILEWEPKPVNQVYTVQISTKSGDWKSKCFYTTDTECDLTDEIVKDVKQTYLARVFSYPAGNVESTGSAGEPLYENSPEFTPYLETNLGQPTIQSFEQVGTKVNVTVEDERTLVRRNNTFLSLRDVFGKDLIYTLYYWKSSSSGKKTAKTNTNEFLIDVDKGENYCFSVQAVIPSRTVNRKSTDSPVECMGQEKGEFRE
light chain-HPC4: DVVMTQTPLSLPVSLGDQASISCRSSQSLVHRNGNTYFHWCLQKPGQSPKLLIYKVSNRFSGVPDRFSGSGSGTDFTLKISRVEAEDLGVYFCSQSTHVPYTFGGGTKLEIKRTVAAPSVFIFPPSDEQLKSGTASVVCLLNNFYPREAKVQWKVDNALQSGNSQESVTEQDSKDSTYSLSSTLTLSKADYEKHKVYACEVTHQGLSSPVTKSFNRGECEDQVDPRLIDGK
How did the FVII-mediated FXa generation % Activity lipidated TLT-1 [1] turn out when B1 was run?
Its FVII-mediated FXa generation % Activity lipidated TLT-1 is 98%.

What about the FVIIa-mediated FXa generation % Activity lipidated TLT-1 [1] of the same binder?
The FVIIa-mediated FXa generation % Activity lipidated TLT-1 was 106%.

And the FVII-mediated FXa generation % Activity activated plts (n 4) [2]?
Its FVII-mediated FXa generation % Activity activated plts (n 4) is 71%.

What about the FVIIa-mediated FXa generation % Activity activated plts (n 4) [2] of the same binder?
Its FVIIa-mediated FXa generation % Activity activated plts (n 4) is 80%.

B2: Fab 0012-TF-L4b-VH-CH1;LC-HPC4 (protein)
TF-linker-VH-CH1: SGTTNTVAAYNLTWKSTNFKTILEWEPKPVNQVYTVQISTKSGDWKSKCFYTTDTECDLTDEIVKDVKQTYLARVFSYPAGNVESTGSAGEPLYENSPEFTPYLETNLGQPTIQSFEQVGTKVNVTVEDERTLVRRNNTFLSLRDVFGKDLIYTLYYWKSSSSGKKTAKTNTNEFLIDVDKGENYCFSVQAVIPSRTVNRKSTDSPVECMGQEKGEFREGGGGSGGGGSGGGGSGSEVKLLESGGGLVQPGGSLKLSCAASGFDFSRYWMTWVRQAPGKGLEWIGEINPDSSTINYTPSLKDKFIISRDNAKNTLYLQMSEVRSEDTALYYCASGVFTSWGQGTLVTVSAASTKGPSVFPLAPCSRSTSESTAALGCLVKDYFPEPVTVSWNSGALTSGVHTFPAVLQSSGLYSLSSVVTVPSSSLGTKTYTCNVDHKPSNTKVDKRVESK
light chain-HPC4: B1 light chain-HPC4
With B2 as the binder, how does the FVII-mediated FXa generation % Activity lipidated TLT-1 [1] read?
The FVII-mediated FXa generation % Activity lipidated TLT-1 was 0%.

And the FVIIa-mediated FXa generation % Activity lipidated TLT-1 [1]?
The FVIIa-mediated FXa generation % Activity lipidated TLT-1 was 0%.

And the FVII-mediated FXa generation % Activity activated plts (n 1) [2]?
Its FVII-mediated FXa generation % Activity activated plts (n 1) is 5%.

And the FVIIa-mediated FXa generation % Activity activated plts (n 2) [2]?
Its FVIIa-mediated FXa generation % Activity activated plts (n 2) is 5%.

B3: Fab 0012-VH-CH1-L10-TF;LC-HPC4 (protein)
VH-CH1-linker-TF: EVKLLESGGGLVQPGGSLKLSCAASGFDFSRYWMTWVRQAPGKGLEWIGEINPDSSTINYTPSLKDKFIISRDNAKNTLYLQMSEVRSEDTALYYCASGVFTSWGQGTLVTVSAASTKGPSVFPLAPCSRSTSESTAALGCLVKDYFPEPVTVSWNSGALTSGVHTFPAVLQSSGLYSLSSVVTVPSSSLGTKTYTCNVDHKPSNTKVDKRVESKYGPPSPSSPAPEFLGGSGTTNTVAAYNLTWKSTNFKTILEWEPKPVNQVYTVQISTKSGDWKSKCFYTTDTECDLTDEIVKDVKQTYLARVFSYPAGNVESTGSAGEPLYENSPEFTPYLETNLGQPTIQSFEQVGTKVNVTVEDERTLVRRNNTFLSLRDVFGKDLIYTLYYWKSSSSGKKTAKTNTNEFLIDVDKGENYCFSVQAVIPSRTVNRKSTDSPVECMGQEKGEFRE
light chain-HPC4: B1 light chain-HPC4
With B3 as the binder, how does the FVII-mediated FXa generation % Activity lipidated TLT-1 [1] read?
The FVII-mediated FXa generation % Activity lipidated TLT-1 was 87%.

And the FVIIa-mediated FXa generation % Activity lipidated TLT-1 [1]?
Its FVIIa-mediated FXa generation % Activity lipidated TLT-1 is 93%.

And the FVII-mediated FXa generation % Activity activated plts (n 2) [2]?
Its FVII-mediated FXa generation % Activity activated plts (n 2) is 78%.

And the FVIIa-mediated FXa generation % Activity activated plts (n 2) [2]?
Its FVIIa-mediated FXa generation % Activity activated plts (n 2) is 81%.
